Test results reported in article PMC4182348 (PLoS ONE, 2014).
Changes are numbered by the printed parent chain. Names may count otherwise.

How the values were obtained:
Conditions in all cases: one partner purified
tetanus toxoid [1] = target: T1, tetanus toxoid (Clostridium tetani, strain  …, UniProt P04958); experiment: ELISA
T1 sequence (P04958 1-457, chain 1 of 2): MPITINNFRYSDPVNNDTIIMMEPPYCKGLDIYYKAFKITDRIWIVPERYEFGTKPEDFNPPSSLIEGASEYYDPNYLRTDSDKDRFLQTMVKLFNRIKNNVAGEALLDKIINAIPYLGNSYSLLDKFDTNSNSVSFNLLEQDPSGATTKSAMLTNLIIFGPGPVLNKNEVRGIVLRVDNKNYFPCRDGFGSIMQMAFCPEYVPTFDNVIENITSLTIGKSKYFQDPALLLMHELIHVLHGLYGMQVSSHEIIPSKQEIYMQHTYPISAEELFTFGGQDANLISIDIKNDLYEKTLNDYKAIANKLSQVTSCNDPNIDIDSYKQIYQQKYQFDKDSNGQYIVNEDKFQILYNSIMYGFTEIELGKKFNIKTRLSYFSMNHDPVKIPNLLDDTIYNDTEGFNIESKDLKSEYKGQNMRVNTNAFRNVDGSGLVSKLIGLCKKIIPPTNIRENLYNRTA
T1 sequence (P04958 458-1315, chain 2 of 2): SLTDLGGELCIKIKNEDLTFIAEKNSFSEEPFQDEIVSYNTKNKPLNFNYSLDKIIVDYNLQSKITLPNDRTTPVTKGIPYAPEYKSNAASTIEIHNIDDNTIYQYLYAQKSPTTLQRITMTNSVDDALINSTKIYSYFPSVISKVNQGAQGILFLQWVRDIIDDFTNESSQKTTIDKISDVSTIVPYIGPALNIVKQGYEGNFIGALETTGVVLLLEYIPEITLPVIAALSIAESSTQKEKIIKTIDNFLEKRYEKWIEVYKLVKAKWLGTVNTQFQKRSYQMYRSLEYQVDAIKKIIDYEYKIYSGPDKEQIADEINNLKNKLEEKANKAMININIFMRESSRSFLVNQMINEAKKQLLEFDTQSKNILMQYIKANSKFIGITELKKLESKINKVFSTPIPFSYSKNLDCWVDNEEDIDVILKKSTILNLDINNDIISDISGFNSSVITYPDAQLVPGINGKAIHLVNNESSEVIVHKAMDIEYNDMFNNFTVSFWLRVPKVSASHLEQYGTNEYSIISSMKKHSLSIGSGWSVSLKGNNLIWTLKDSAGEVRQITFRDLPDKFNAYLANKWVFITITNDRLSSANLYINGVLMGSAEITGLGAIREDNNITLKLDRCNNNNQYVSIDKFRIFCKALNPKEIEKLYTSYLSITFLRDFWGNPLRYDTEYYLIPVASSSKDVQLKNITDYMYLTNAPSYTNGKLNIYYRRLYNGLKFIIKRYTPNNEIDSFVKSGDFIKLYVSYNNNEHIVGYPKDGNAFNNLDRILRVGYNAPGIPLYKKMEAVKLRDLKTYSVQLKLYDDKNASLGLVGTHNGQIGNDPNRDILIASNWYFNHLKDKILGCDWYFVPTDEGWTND

tetanus toxoid [2] = target: tetanus toxoid (Clostridium tetani, strain  …, UniProt P04958); experiment: SPR
Target sequence in this assay (P04958 whole entry): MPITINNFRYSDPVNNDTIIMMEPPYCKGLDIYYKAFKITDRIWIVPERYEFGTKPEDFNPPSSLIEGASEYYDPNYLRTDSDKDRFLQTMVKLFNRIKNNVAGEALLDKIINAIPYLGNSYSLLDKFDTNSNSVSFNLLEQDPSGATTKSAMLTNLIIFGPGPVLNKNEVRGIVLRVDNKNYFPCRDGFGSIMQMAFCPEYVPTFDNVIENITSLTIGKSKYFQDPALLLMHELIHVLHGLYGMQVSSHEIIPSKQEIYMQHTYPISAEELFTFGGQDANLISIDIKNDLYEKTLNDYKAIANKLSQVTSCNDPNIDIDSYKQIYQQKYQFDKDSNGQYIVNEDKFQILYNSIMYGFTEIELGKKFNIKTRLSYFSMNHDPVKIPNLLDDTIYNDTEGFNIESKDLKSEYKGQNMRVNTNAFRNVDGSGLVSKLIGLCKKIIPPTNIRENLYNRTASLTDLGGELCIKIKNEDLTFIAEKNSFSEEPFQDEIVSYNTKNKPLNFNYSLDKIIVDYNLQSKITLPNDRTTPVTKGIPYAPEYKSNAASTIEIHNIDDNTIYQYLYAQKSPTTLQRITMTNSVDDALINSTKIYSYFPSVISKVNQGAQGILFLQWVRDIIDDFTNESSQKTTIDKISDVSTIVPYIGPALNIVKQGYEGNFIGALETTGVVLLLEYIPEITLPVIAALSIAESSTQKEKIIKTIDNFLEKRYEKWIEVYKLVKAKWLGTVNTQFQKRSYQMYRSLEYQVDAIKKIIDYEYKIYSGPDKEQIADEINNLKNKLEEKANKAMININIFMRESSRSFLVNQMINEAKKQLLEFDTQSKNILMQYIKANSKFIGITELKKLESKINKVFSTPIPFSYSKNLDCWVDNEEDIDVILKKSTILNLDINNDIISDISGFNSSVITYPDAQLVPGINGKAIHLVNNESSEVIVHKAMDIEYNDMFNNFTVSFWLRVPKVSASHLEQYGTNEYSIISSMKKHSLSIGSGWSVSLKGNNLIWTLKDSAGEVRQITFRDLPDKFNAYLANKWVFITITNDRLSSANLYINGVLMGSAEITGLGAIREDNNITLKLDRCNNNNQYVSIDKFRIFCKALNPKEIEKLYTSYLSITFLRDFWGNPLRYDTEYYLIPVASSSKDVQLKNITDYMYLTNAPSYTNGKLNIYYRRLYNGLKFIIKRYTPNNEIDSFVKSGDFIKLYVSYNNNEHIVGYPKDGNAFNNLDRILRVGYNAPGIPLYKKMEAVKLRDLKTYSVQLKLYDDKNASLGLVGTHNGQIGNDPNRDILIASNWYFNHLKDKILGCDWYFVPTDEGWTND

tetanus toxoid [3] = target: T1, tetanus toxoid; experiment: SPR; remark: listed apart in the source

B1: phage display isolate S917 (Fab, V domains shown)
VH: LVKPGGSLKLSCAVSGFNFSNYAMSWVRQTPEKRLEWVATISSGGSYIYYPDSVKGRFTISRDNAKNTLYLQMSSLRSEDTAMYYCARQDRYGFALDYWGQGTSVTVSS
VL: SLSASLGDRVTISCRASQDINNYLNWYQQKPDGTIRLLIYYTSRLHSGVPSRFSGSGSGTDYSLTITNLEQEDFATYFCQQGNTLPWAFGGGTKLEIK
B1: binds (tetanus toxoid [1]).

B2: anti-TT mAb of hybridoma P4T29115 (antibody, V domains shown)
VH: EVKLVESGGGLVKPGGSLKLSCAASGITFSNYAMSWVRQTPEKRLEWVATISSGGSYIYYPDSVKGRFTISRDNAKNTLYLQMSSLRSEDTAVYFCARLGYDGVALDYWGQGTSVTVSS
VL: ASLGDRVSISCRASQDIRNYLNWYQQRPDGTVKLLIYYTSRLHSGVPSRFSGSGSGTDYSLTISNLEQEDIATYFCQQGNTFPWTFGGGTKLEIK
B2: binds (tetanus toxoid [1]).

B3: TT-specific Fab S10 from the phage display library (Fab, V domains shown)
VH: LVAPSQSLSITCTVSGFSLTDYGVNWVRQPPGKGLEWLGMIWGDGSTDYNSALKSRLSISKDNSKSQVFLKMNSLQTDDTARYFCVRTFHYGNYFDYWGQGTTLTVSS
VL: TMAASPGEKITITCSASSSISSNYLHWYQQKPGFSPKLLIYRTSNLASGVPARFSGSGSGTSYSLTIGTMEAEDVATYYCQQGSSIPLTFGAGTKLELK
Binder B3 has a Kd (tetanus toxoid [2]) of 12 nM, a koff (tetanus toxoid [2]) of 0.00032 s⁻¹ and a kon (tetanus toxoid [2]) of 26000 M⁻¹ s⁻¹.

B4: anti-TT mAb of hybridoma 14 (antibody, V domains shown)
VH: VQLQESGPGLVAPSQSLSITCTVSGFSLTSYGVHWVRQPPGKGLEWLGVIWPGGSTNYNSALMSRLSISQDNSKSQVFLKMNSLQIDDTAMYHCARDFQYGNYFDYWGQGTSLTVSS
VL: MPASPGEKITITCSASSSISSNYLHWYQQKPGFSPKLLIYRTSNLASGVPARFSGSGSGTSYSLTVGTMEAEDVATYYCQQGTSIPTFGAGTKLELK
In the case of B4, the Kd (tetanus toxoid [3]) is reported as 3.1 nM, the koff (tetanus toxoid [3]) is reported as 0.00029 s⁻¹ and the kon (tetanus toxoid [3]) is reported as 94000 M⁻¹ s⁻¹.

B5: TT-specific Fab D5O 94 from the phage display library (Fab, V domains shown)
VH: LVKPGASVKIPCKASGYTFTDYNIDWVKQSHGKSLEWIGDINPNNGGTIYNQKFKDKATLTVDKSSSTAYMELRSLTSEDTAVYYCARDFYYGRYFDYWGQGTTLTVSS
VL: TMAASPGEKITITCSATSSISSNYLHWYQQKPGFSPKLLIYRTSNLASGVPARFSGSGSGTSYSLTIGTMEAEDVATYYCQQGSNIPTFGSGTKLELK
With B5 the Kd (tetanus toxoid [2]) was 4.8 nM, the koff (tetanus toxoid [2]) was 0.00037 s⁻¹ and the kon (tetanus toxoid [2]) was 78000 M⁻¹ s⁻¹.

B6: phage display isolate S546 (Fab, V domains shown)
VH: LVAPSQSLSITCTVSGFSLTSYGVHWVRQPPGKGLEWLGVIWPGGSTNYNSALMSRLSISKDNSKSQVFLKMNSLQTDDTAMYYCARDFQYGNYFDYWGQGTTLTVSS
VL: B5 VL with T17S, A52T, N85S, P87S, S91A
B6: binds (tetanus toxoid [1]).

B7: anti-TT mAb of hybridoma 24 (antibody, V domains shown)
VH: VQLQQTGPGLVQPSQSLSITCTVSAFSLTNYGIHWVRQSPGKGLEWLGVIWTGGSTDYNAPFISRLSISKDNSKSQVFFKMNSLQANDTAIYYCVRDGYRVMDYWGQGTSVTVSS
VL: LSASVGETVTITCRASGNIHNYLAWYQQKQGKSPQLLVYNAKTLTDGVPSRFSGSGSGTQHSLKINSLQPEDFGSYYCQHFWTIPWTFGGGTKLEIK
For B7, the Kd (tetanus toxoid [3]) was 1.9 nM, the koff (tetanus toxoid [3]) was 0.00016 s⁻¹ and the kon (tetanus toxoid [3]) was 86000 M⁻¹ s⁻¹.
